Laboratory results from the DeepSol protein solubility set.

assay: soluble on expression in E. coli; label from the status in PepcDB or PDB records

Soluble on expression in E. coli, not soluble:
MGSDKIHHHHHHMSIYNSIGLHYSKTRVPDIRIVNKIIDLLNLPKNSIIADIGAGTGGYSLALANKGFLVNAIEPSLVMQKQAVEHPQVKWFTGYAENLPLLDNSVDTVVSILAIHHFSHLPKAFQEMHRIIKNGAIILLTFDIRLAQKIWLYDYFPFLWEDALQFLPLNEQINLIQINTKRRVEAIPLLLPYDLSDLFAAAGWRRPELYLQAEVRAGISSLALANQDLVDQGVKLLTADLSSEKWRKQYGDIHNLTEIDIGYRFIHTTLNN, MAHHHHHHMLQSPKGINILITGTPGTGKTSLAELLAQELGDFKHVEVGKIVKENHFYSEYDNALDTHIVEEDDEDRLLDFMEPMMVNEGNHVVDYHSSELFPRRWFHLVIVLRASTEVLFERLTARRYSEQKRDENMEAEIQGLCEEEARGAYDDSIVIVRENNTLEEMAATVDLIRLRVESLRGNAA, MGKRKAFIDKKASQSFRLVPDNRERSERFKPTQEHLEEQQKYGVYYDDDYDYLQHMRAVNEPMKLENVHEEVEKTTIKTSGSSAFPPAPPLFGLVGALKKPEFFDEDVANALEEVTDDRNTGELEDNFITLAGGLLDERTTVYRSTRRGEDSEEEEDDDEDDEMYDDYNDDELFGEEAVGEIRVERADQRVIDNAFEELMDREYNTDQIGELDGDDYDVGGALEPNAGRLHKLINDKGPSNAEYDEELAKHYVRERMRLIEEGVIKDKEEYEIVEVDEGTNKKMKWDCESFATQYTNIYNHPTLIKEPRGLSRKALKRFDKAVEEMDIAEEDEDDDEDMEDDDDKESVFSTVSTFRPKNETPEQRSLRKKAVKEARKLRRVEKKANKTMFAEEKRKLAKGRIGQIKARPI, MKDELIKKLSRPEWDFQYDSEKEVLRIEQKDSKKGINVSLPGVVAKWEVNKEKAIEEVAYYVQEALIAMHKEENSGAKILPVIRSTSFPKQAEEGNPFIMTDHTAETRIYYALDSNKTYRLIDERLLQKLELTEQQVREMALFNARSLGYEFKQDTVAGNTFYFLNTNDGYDATRILNESLLQSMREKISGDMVVAVPHQDVLIIADIVNEIGYDIIAQMTMKFFAEGHVPITSLSFVYEDGEFEPIFILAKNRKKTDGKEKG, MIVWSVANQKGGVGKTTTTITLAGLLSQQGKRVLLVDTDPHASLTTYLGYDSDGVPASLFDLFQLREYNEASVKPLILNTDIQGIDLIPAHMSLATLDRVMGNRSGMGLILKRALLALRHVYDYVLIDCPPILGVMMVNALAASDRILIPVQTEFLAMKGLERMVRTLAIMQKSRSREFKVTIVPTMYDKRTRASLQTLNQLKKDYPDKVWTSAVPIDTKFRDASLQRLPASHFAEGSRGVFAYKQLLLFLERLAIDE, MGSDKIHHHHHHMKSKGSRLSTDCPVEFPKIVSGFAEEVKIRRQSSQGQYAVDSHPPKSPELKHRRQRSSSFVNGKCRNRDLPLLDNKKAQEINTNSHGQDIGIKNLPRQRELLNAKNGIDFTLMVAGQSGLGKTTFINSLFSTSLIDDDIKENKPIIRYKSIVEGDGTHLNFNVIDTPGFGNNMDNAFTWRTMVNYIDEEIRSYIFQEEQPDRTKMVDNRVHCCLYFLRPSNKGIDTLDVVTMKKLAKRVNLIPVIAKSDLLTKEELKNFKTQVREIIRVQDIPVCFFFGDEVLNATQDIFQKYPFSIIASNEYIFNEKGEKVKGRQYKWGAVDIENEKYCDFKILQKTIFDWNLIDLVESTEDYYEKCRSEMLRTRLLKARDCLTTKSVDITEEQRKFLEEEMNFDEIEENKLKNYKCYEIINKTVMDKVATEWDPEFITRQLEAKKKFNELSNREISKFRDWKKSLFMEQENFNQEIEQLNHKLENLQLECQDLEYKLLIGKSSNSHSTDSATLVNVHIKR, MKFFLLKKFSEFLNAQTHFSLKRLNASSFLLETFSKEKHAFVVDLSAPYIGLSKKPPESVLKNTLALDFCLNKFTRNAKILQANIIDNDRILEINGAKDLAYKSENFILRLEMIPKKANLMILDKEKCVIEAFRFNDRVAKNDILGALPPNIYEHQEEDLDFKGLLDILEKDFLFYQHKELEHKKNQIIKRLNAQKERLKEKLEKLEDPKNLQLEAKELQTQASLLLTYQHLIHKHESRVVLKDFEDKERAIEIDKSMPLNAFINKKFTLSKKKKQKSQFLYLEEENLKEKIAFKENQINYVKGAQEESVLEMFMPSKNSKIKRPMSGYEVLYYKDFKIGLGKNQKENIKLLQDARANDLWMHVRNIPGSHLIVFCQKNAPKDDVIMELAKMLIKMQKDAFNSYEIDYTQRKFVKIIKGANVIYSKYRTISLKDT, MADETTMRAGRGPGRACGRVSGVRILVVEDEPKMTALLARALTEEGHTVDTVADGRHAVAAVDGGDYDAVVLDVMLPGIDGFEVCARLRRQRVWTPVLMLTARGAVTDRIAGLDGGADDYLTKPFNLDELFARLRALSRRGPIPRPPTLEAGDLRLDPSEHRVWRADTEIRLSHKEFTLLEALIRRPGIVHTRAQLLERCWDAAYEARSNIVDVYIRYLRDKIDRPFGVTSLETIRGAGYRLRKDGGRHALPR, MGSDKIHHHHHHLTNLLVIGATGNIGQPLIRDLQDDPDVHLFAGVHNSEHAKQALNGLKVQVRRFDFLDPATFEQALADIDKVFFVRPPQLAKPKEDMYPFLDALVARHVKQVVFVSLLGVAHNPMTPHHQIEKRIVELGLPYTFIRPSFFMQNLNTTHQADIVGHRDLFVPAGHARTSFIDTRDIGATAAVILRDPAYIGQKLDITGAQALTYADAAQIMTMELGVPITYSKPSLWRFRKVMLQRGLPKNYVNVMVMLYLITQLGNAKTVTTTLPNVLGRPAISFEQYVHDYRAEFLPKPLS

Soluble on expression in E. coli, soluble:
VVVGAERTELLLPLLRDKRVALVANATSVVGTEREHLLDNLLRQGVNVVKILGPEHGFRGDADAGATVKDERDVRTGIPIVSLYGKNKKPTPRMLADVDVLLFDMQDVGTRFFTYISTLHYVMEACAEEQKKLIVTDRPNPNDYVDGPILQDDCRSFVGVDPLPILHGLTIGELANMINGEGWLGKKEMKCDLTVVPMSGWKHGQEYALPVKPSPNLPTANAIAWYPSLCLFEATIMSVGRGTDFPFEVLGYPKKVFGSFVFVPRPIRGMDSNPLYKGRHCYGVDLRGEKAPRGLSLQLLIRYYQTARREGIKFVNRKQMFNLLAGTKELAQQIEKGRTEEQIRASWQSDLDKYHKLRKKYLLYPTPTE, MREIVTIQVGEFANFVGSHFWNFQDELLGLASDPESDPIFRNHNLDMDVLYRSGETQQGVATYTPRLVSVNLKGALGTMSSRGTLYNEGSSSRSDSSATWFGDVDTQRSEPRKRNLFLQSLYEEEHVVGKEKAKEIEDKDIVGCLDEEVECWTDFSKSHYHPQSLYELNGLWMDSQAFNNYGIGKDVFSEASRGEEICDRLRFFVEECDHIQGIKFLVDDSGGFSAVAADFLENMADEYTNVPVLLYSVRTPMSQMSSKKTVSNKLHDAISFSRLSSFCKLFTPIGLPSLTGSKASKFLNLGDEKPYRSSAVYAAALHSSTIPFRMQPTSSDSSEVSNSMDVNTLVQLLTGRGRQNIVAILDSAMPAPTLAGKQLENTLLTSLQALTPEVTEDVEDNQAVESMCILGALRSEDKEALVSEVKNAVDASYEQATTKGKPLFCNLSVSRCPLPVPLPFPSIFGNLVGRKGEILSSPVSDSLYRGSLDVHSIPVATRWRSSSAILPFLETRMGNLEKLGIQWGAMGSDVVRAWGFGREELQEMRENLSKMVSELNPQFFESSDSD, MSLQPPFSILFVDDDEMSRNHFARAMSADYKVYVAQSADEAITVLGKHASEIAVLVTDFRMPGRDGDELLREVAHEYPQIVRILVTAYADKDMLLQTVNTGDVFRIIEKPLRTDMVREVLHLATARYTERETRQQRLLAMDETLAFLAHELNTPLATISLFARSVENDVAEQYDPERQREIGLAAKSMLNNAQYCLTLISSFWATVHKSGGQKSASGGGTRAVRATRLIATLLDTYPFVASQRDWVKVDVEGDFVVHAMPNCVALVLSSLLSNALRALDGGSAPVLRLEVVAFPEPEIRIRDNGPGIAPEVKARLLQDPVTTYAGAGGHGMGMIFCNRIMQSFGGCLRIESTVGAGTTVTMGFPGFNSRMHSADEGHHHHHH, SLPVSYIENQSAVINQGDFLTQLSNIKNYSSKLSTNFYDNYEKITNWVLSGANINELTQFNIQPQIMRGFDGFQNVLMTGYYSPILYARHSPQGQFKNPIYRMPVKKRLSRAQIYAGALAGKRLELAYSDSMLENFLLGVQGSGYVDFGDGNLNYFAYAGQNGYPYTAIGRLLVEDGEIPKEKMSIQAIREWGNRNPSRIQSLLERNEAYVFFKNDPSGKVKGSAGVPLVAMASVASDRNIIPSGSVLLVEVPDIDNNGNWLGTHKLHLMVALDVGGAVKGHHFDLYRGIGARAGHIAGLSKHYGRVWVLR, GGEGTDAIQALIQAYFTAWNTNAPERFAEIFWPDGSWVNVVGMHWRGRDQIVFAHTAFLKTIFKDCKQELVTIEARTIAPGSALAVVTLIQDAYVTPDGRQMPRAHDRLTLLAVEREGVWRFIHGHNTIVNPDAANNDPVLRMKPA, MSLILCCGEALIDMLPRQTTLGEAGFAPYAGGAVFNTAIALGRLGVPSAFFTGLSDDMMGDILRETLRASKVDFSYCATLSRPTTIAFVKLVDGHATYAFYDENTAGRMITEAELPALGADCEALHFGAISLIPEPCGSTYEALMTREHETRVISLDPNIRPGFIQNKQSHMARIRRMAAMSDIVKFSDEDLAWFGLEGDEDTLARHWLHHGAKLVVVTRGAKGAVGYSANLKVEVASERVEVVDTVGAGDTFDAGILASLKMQGLLTKAQVASLSEEQIRKALALGAKAAAVTVSRAGANPPFAHEIGLEGHHHHHH, MTSEQYSVKLTPDFDNPKWIGRHKHMFNFLDVNHNGRISLDEMVYKASDIVINNLGATPEQAKRHKDAVEAFFGGAGMKYGVETEWPEYIEGWKRLASEELKRYSKNQITLIRLWGDALFDIIDKDQNGAISLDEWKAYTKSDGIIQSSEDCEETFRVCDIDESGQLDVDEMTRQHLGFWYTMDPACEKLYGGAVP, MSLSHTLKSKTLQELDIEEIKETNPLLKLVQGQRIVQVPELVLESGVVINNFPIAYKTWGTLNEAGDNVLVICHALTGSADVADWWGPLLGNDLAFDPSRFFIICLNSMGSPYGSFSPLTINEETGVRYGPEFPLCTVRDDVRAHRIVLDSLGVKSIACVIGGSMGGMLSLEWAAMYGKEYVKNMVALATSARHSAWCISWSEAQRQSIYSDPNYLDGYYPVEEQPVAGLSAARMSALLTYRTRNSFENKFSRRSPSIAQQQKAQREETRKPSTVSEHSLQIHNDGYKTKASTAIAGISGQKGQSVVSTASSSDSLNSSTSMTSVSSVTGEVKDIKPAQTYFSAQSYLRYQGTKFINRFDANCYIAITRKLDTHDLARDRVDDITEVLSTIQQPSLIIGIQSDGLFTYSEQEFLAEHIPKSQLEKIESPEGHDAFLLEFKLINKLIVQFLKTNCKAITDAAPRAWGGDVGNDETKTSVFGEAEEVTNWEGHHHHHH, GMTGLSQSQASPMQIQPGNAAFNPWTDAALDTIRDVNQALTLYAEMRVVPAHHDAFLAAIDTVSAKLRVLPGFLSLALKQMSGDSTMVKNYPETYKGVLATAYLDGVAAGTQPYFYNLFVRFADGRAARAAGFEALFETHIHPLLHAMAPRGGDGPELLAYRAVLQSVVAGDRHAIYRGAEEIRSFLRRPVELPERETVTVENHVMVPEDKHAAWEPQVAILLQVAQDTFEPQDEPSGVGLPGARDNRYYRKALSTEILRNAHADGGLRAYIMHGVWESVWDHENSHLDPRFLAAAGPVGAAAVVGPVEPFYLTRRLVVAD, MVSRLSTGILDFDKLIQGGIPQGFFIALTGEPGTGKTIFSLHFIAKGLRDGDPCIYVTTEESRDSIIRQAKQFNWDFEEYIEKKLIIIDALMKEKEDQWSLVNLTPEELVNKVIEAKQKLGYGKARLVIDSVSALFLDKPAMARKISYYLKRVLNKWNFTIYATSQYAITTSQAFGFGVEHVADGIIRFRRMIRNGELHRYILIEKMRQTDHDKHVWEIDIVNGKGIVLKGRLEE
